Consider 1 molecule from patent US20240390468A1, “SURVIVIN AND MAGE-A9 DUAL-TARGETED IMMUNOTHERAPY” (IMMUNOVACCINE TECHNOLOGIES INC., priority 2022, published 2024).

Common to all, as to details: remark: other sources report otherwise
Experiment [1] concerns the target MHC class 1 allele A*02:01. In words: REVEAL peptide-MHC binding assay, HLA-A*02:01.
Experiment [2] addresses MHC class 1 allele A*02:01. In words: REVEAL on-rate assay, HLA-A*02:01.
The target in experiment [3] is MHC class 1 allele A*02:01. Briefly: REVEAL R-score, HLA-A*02:01.
For experiment [4], the target named is MHC class 1 allele A*02:01. Briefly: REVEAL kinetic score, HLA-A*02:01.
Experiment [5] addresses MHC class 1 allele A*02:01. In words: REVEAL off-rate assay, HLA-A*02:01.

Take STFKNWPFL [SurA24 (survivin peptide antigen HLA-A24, …)]: the REVEAL score in experiment [1] was found to be 61.9. In experiment [2], this molecule displayed an On-rate T1/2 of 31.5 h. The molecule also showed a R-score in experiment [3] of 0. This molecule also had a Kinetic score in experiment [4] of 0. Further, in experiment [5], the Off-rate T1/2 stood at 7.2 min.
